# Laboratory results as given in the supplement of paper PMC10567573.
# B1: ZNF449 (parent)
# chain: RIHSGEEPHKCPECGKRFLRSSDL
# Variants of: B1
# Experiment: protein stability index of a GFP-peptide fusion (GPS, HEK-293T) (PSI 1-6); higher = more stable
# Conditions: c terminus: a fixed tail appended
# 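Also: lentivirally expressed fusions sorted by FACS into six bins by GFP to DsRed ratio, PSI derived from sequencing read proportions per bin multiplied by bin number.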
row,Variant,protein stability index
1,F18Q,3.58
2,F18T,3.75
3,F18V,2.92
4,F18E,4.56
5,F18P,3.83
6,F18D,4.4
7,F18S,3.29
8,F18K,4.33
9,F18M,3.32
10,F18N,4.68
11,F18I,3.22
12,F18Y,3.87
13,D23S,2.46
14,D23Y,1.72
15,D23F,2.04
16,D23I,1.61
17,D23A,2.23
18,D23K,2.77
19,D23H,3.41
20,D23N,2.8
21,D23C,2.75

row,Variant,protein stability index
1,D23P,2.29
2,D23V,1.73
3,D23T,2.7
4,D23L,2.16
5,D23E,2.52
6,D23R,1.51
7,D23Q,1.86
8,L19F,3.26
9,L19P,3.54
10,L19V,3.32
11,L19A,3.96
12,L19C,4.48
13,L19Y,3.23
14,L19N,3.27
15,L19T,3.65
16,L19G,4.31
17,L19K,4.04
18,L19D,3.88
19,L19E,4.32
20,L19S,4.05
21,L19R,3.74

row,Variant,protein stability index
1,L19M,4.05
2,L19W,3.09
3,L19Q,4.41
4,L19I,2.76
5,L19H,3.41
6,R17D,3.71
7,R17C,3.74
8,R17E,4.2
9,R17F,3.2
10,R17Q,3.63
11,R17M,3.59
12,R17N,3.4
13,R17Y,3.58
14,R17H,4.23
15,R17K,4.13
16,R17P,3.66
17,R17T,3.97
18,R17V,3.17
19,R17L,3.08
20,R17I,3.72
21,R17A,3.61

row,Variant,protein stability index
1,R17W,3.97
2,R17G,3.12
3,R17S,4
4,R20K,3.25
5,R20L,3.32
6,R20S,3.82
7,R20I,2.91
8,R20H,2.89
9,R20F,3.35
10,R20C,3.88
11,R20M,3.41
12,R20V,2.27
13,R20A,4.09
14,R20Y,2.86
15,R20N,4.21
16,R20P,3.99
17,R20D,3.47
18,R20Q,4.3
19,R20E,3.91
20,R20T,3.17
21,R20W,2.31
